In publication PMC8386010, “Nanobody-armed T cells endow CAR-T cells with cytotoxicity against lymphoma cells” (Cancer Cell International, 2021):
No end group written: not given here.

B1: Anti-CD19 Nb3 (VHH)
VHH: QVQLQESGGGSVQGGGSLRLSCAVSGATYMIQYMGWFRQAPGKEREGVAVIHSDDRTTYADSVKGRFTISQDNANHTLYLQMNSLKPEDTGMYVCASSLSKGGYYRGDLVPGQFTYWGRGTQVTVSS
B2: anti-CD19 Nb1 (VHH)
VHH: QVQLQESGGGSVQAGGSLRLSCAVRRPTDSRNCMAWFRQAPGEQREAVAGIDIYRTTGYAESVKGRFTISQDNAKNTLFLQMNSLKPEDSGTYYCAAARPCKYGSEWRRSASDFLYWGQGTQVTVSS
notes: nanobody selected from a Bactrian camel naive phage display library; In SPR it was captured by an anti-human IgG (Fc) antibody; also called anti-CD19 nanobody; source: cloned into the pCZN1 vector, expressed and purified
B3: Anti-CD19 Nb2 (VHH)
VHH: QVQLQESGGGSVQTGGSLRLSCAASGFSYTGHHMGWFRQVAAQEREWVGSIYTDPGTTFYADSVKGRFTISQDVAKKMVYLQMNNLKPTDTGIYFCAAEPVADGPPLMSRDRCFGSWGQGTQVTVSS
B4: human CD20 antigen (natural protein)
chain: KISHFLKMESLNFIRAHTPYINIYNCEPANPSEKNSPSTQYCYSIQS
modifications: cysteine pairing not given here; also: biotinylated for panning, position not given here

Columns and labels:
human CD19 antigen [1] = molecular target: T1, human CD19 antigen (Homo sapiens, UniProt P15391)
human CD19 antigen [2] = molecular target: T1, human CD19 antigen; experiment: SPR; Biacore T200; nanobody captured by immobilised mouse anti-human IgG (Fc) antibody; human CD19/CD20 antigen injected in 7 serial twofold dilutions from 10 µg/ml, 30 µl/min, association 120 s, dissociation 300 s; details: both partners purified
anti-CD20 Nb1 = molecular target: T2, anti-CD20 Nb1 (Bactrian camel); experiment: as above; details: both partners purified
T2 construct: nanobody selected from a Bactrian camel naive phage display library; In SPR it was captured by an anti-human IgG (Fc) antibody; also called anti-CD20 nanobody; source: cloned into the pCZN1 vector, expressed and purified

T1 sequence (P15391 20-291): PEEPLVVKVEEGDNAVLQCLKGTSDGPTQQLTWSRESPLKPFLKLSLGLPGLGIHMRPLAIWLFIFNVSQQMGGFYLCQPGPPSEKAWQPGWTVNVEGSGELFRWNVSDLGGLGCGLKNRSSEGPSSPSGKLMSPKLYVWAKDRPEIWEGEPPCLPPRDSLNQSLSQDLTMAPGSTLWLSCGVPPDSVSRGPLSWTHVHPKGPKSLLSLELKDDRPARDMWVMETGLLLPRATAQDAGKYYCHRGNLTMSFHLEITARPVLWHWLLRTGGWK

Binder	binding result (human CD19 antigen [1])	further results
B1	binds	
B2		Kd (human CD19 antigen [2]): 290 nM
B3	binds	
B4		Kd (anti-CD20 Nb1): 147 nM
